The RNAGym collection of RNA variant scans (doi:10.1093/molbev/msab373)

B1: Azoarcus group I ribozyme (parent)
chain: GUGCCUUGCGCCGGGAAACCACGCAAGGGAUGGUGUCAAAUUCGGCGAAACCUAAGCGCCCGCCCGGGCGUAUGGCAACGCCGAGCCAAGCUUCGGCGCCUGCGCCGAUGAAGGUGUAGAGACUAGACGGCACCCACCUAAGGCAAACGCUAUGGUGAAGGCAUAGUCCAGGGAGUGGCGAAAGUCACACAAACCGG

Variants of: B1
Experiment: reverse-splicing fitness (ratio to wild type); higher = more active; in vitro selection; Mg2+ level not given
How it was run: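 An in vitro group I ribozyme library with randomized positions was T7-transcribed and gel-purified. In triplicate, 10 pmol RNA in EPPS pH 7.5 was reacted with 50 pmoles of a 30-nt RNA substrate for 1 h at 37 °C across several added MgCl2 levels (1–48 mM), then stopped with EDTA. Products were reverse transcribed from a substrate-complementary primer, PCR-amplified and sequenced (HiSeq 4000). Fitness is a variant's read proportion after selection over that before, normalised to wild type.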

| Variant | reverse-splicing fitness |
| --- | --- |
| A111U A120C A145G C150A C169U U176C | 0.022 |
| A111U A120C A145G C150A C169U U176G | 0.00691 |
| A111U A120C A145G C150A U176A | 0.0518 |
| A111U A120C A145G C150A U176C | 0.0785 |
| A111U A120C A145G C150A U176G | 0.013 |
| A111U A120C A145G C150G | 0.0716 |
| A111U A120C A145G C150G C169A | 0.0087 |
| A111U A120C A145G C150G C169A U176A | 0.0117 |
| A111U A120C A145G C150G C169A U176C | 0.0123 |
| A111U A120C A145G C150G C169A U176G | 0.00732 |
| A111U A120C A145G C150G C169G | 0.00738 |
| A111U A120C A145G C150G C169G U176A | 0.0094 |
| A111U A120C A145G C150G C169G U176C | 0.0106 |
| A111U A120C A145G C150G C169G U176G | 0.00555 |
| A111U A120C A145G C150G C169U | 0.0226 |
| A111U A120C A145G C150G C169U U176A | 0.0118 |
| A111U A120C A145G C150G C169U U176C | 0.0127 |
| A111U A120C A145G C150G C169U U176G | 0.00652 |
| A111U A120C A145G C150G U176A | 0.0125 |
| A111U A120C A145G C150G U176C | 0.0344 |
| A111U A120C A145G C150G U176G | 0.00627 |

| Variant | reverse-splicing fitness |
| --- | --- |
| A111U A120C A145G C150U | 0.495 |
| A111U A120C A145G C150U C169A | 0.0113 |
| A111U A120C A145G C150U C169A U176A | 0.0143 |
| A111U A120C A145G C150U C169A U176C | 0.0138 |
| A111U A120C A145G C150U C169A U176G | 0.00555 |
| A111U A120C A145G C150U C169G | 0.00992 |
| A111U A120C A145G C150U C169G U176A | 0.0125 |
| A111U A120C A145G C150U C169G U176C | 0.0168 |
| A111U A120C A145G C150U C169G U176G | 0.00528 |
| A111U A120C A145G C150U C169U | 0.148 |
| A111U A120C A145G C150U C169U U176A | 0.0282 |
| A111U A120C A145G C150U C169U U176C | 0.0389 |
| A111U A120C A145G C150U C169U U176G | 0.0053 |
| A111U A120C A145G C150U U176A | 0.176 |
| A111U A120C A145G C150U U176C | 0.25 |
| A111U A120C A145G C150U U176G | 0.0319 |
| A111U A120C A145G C169A | 0.0121 |
| A111U A120C A145G C169A U176A | 0.019 |
| A111U A120C A145G C169A U176C | 0.0215 |
| A111U A120C A145G C169A U176G | 0.0041 |
| A111U A120C A145G C169G | 0.0095 |

| Variant | reverse-splicing fitness |
| --- | --- |
| A111U A120C A145G C169G U176A | 0.019 |
| A111U A120C A145G C169G U176C | 0.0229 |
| A111U A120C A145G C169G U176G | 0.00461 |
| A111U A120C A145G C169U | 0.172 |
| A111U A120C A145G C169U U176A | 0.0335 |
| A111U A120C A145G C169U U176C | 0.046 |
| A111U A120C A145G C169U U176G | 0.00517 |
| A111U A120C A145G U176A | 0.246 |
| A111U A120C A145G U176C | 0.306 |
| A111U A120C A145G U176G | 0.0419 |
| A111U A120C A145U | 0.596 |
| A111U A120C A145U C150A | 0.061 |
| A111U A120C A145U C150A C169A | 0.00875 |
| A111U A120C A145U C150A C169A U176A | 0.0108 |
| A111U A120C A145U C150A C169A U176C | 0.00867 |
| A111U A120C A145U C150A C169A U176G | 0.00488 |
| A111U A120C A145U C150A C169G | 0.00755 |
| A111U A120C A145U C150A C169G U176A | 0.0112 |
| A111U A120C A145U C150A C169G U176C | 0.0106 |
| A111U A120C A145U C150A C169G U176G | 0.00518 |
| A111U A120C A145U C150A C169U | 0.0213 |

| Variant | reverse-splicing fitness |
| --- | --- |
| A111U A120C A145U C150A C169U U176A | 0.0185 |
| A111U A120C A145U C150A C169U U176C | 0.0187 |
| A111U A120C A145U C150A C169U U176G | 0.00493 |
| A111U A120C A145U C150A U176A | 0.034 |
| A111U A120C A145U C150A U176C | 0.0509 |
| A111U A120C A145U C150A U176G | 0.0114 |
| A111U A120C A145U C150G | 0.0712 |
| A111U A120C A145U C150G C169A | 0.00829 |
| A111U A120C A145U C150G C169A U176A | 0.00913 |
| A111U A120C A145U C150G C169A U176C | 0.00757 |
| A111U A120C A145U C150G C169A U176G | 0.00497 |
| A111U A120C A145U C150G C169G | 0.00662 |
| A111U A120C A145U C150G C169G U176A | 0.00683 |
| A111U A120C A145U C150G C169G U176C | 0.005 |
| A111U A120C A145U C150G C169G U176G | 0.00491 |
| A111U A120C A145U C150G C169U | 0.0242 |
| A111U A120C A145U C150G C169U U176A | 0.0117 |
| A111U A120C A145U C150G C169U U176C | 0.0166 |
| A111U A120C A145U C150G C169U U176G | 0.00475 |
| A111U A120C A145U C150G U176A | 0.0175 |
| A111U A120C A145U C150G U176C | 0.0375 |
